Experimental data reported in patent publication CN117551199A (HANGZHOU RONGGU BIOTECHNOLOGY CO LTD, dated 2024).

Target: T1, CLDN18.2 (Claudin18.2) expressed on cells (UniProt P56856-2 1-261)
T1 construct: whole, on cells; also called K562-CLDN18.2
T1 sequence (looked up): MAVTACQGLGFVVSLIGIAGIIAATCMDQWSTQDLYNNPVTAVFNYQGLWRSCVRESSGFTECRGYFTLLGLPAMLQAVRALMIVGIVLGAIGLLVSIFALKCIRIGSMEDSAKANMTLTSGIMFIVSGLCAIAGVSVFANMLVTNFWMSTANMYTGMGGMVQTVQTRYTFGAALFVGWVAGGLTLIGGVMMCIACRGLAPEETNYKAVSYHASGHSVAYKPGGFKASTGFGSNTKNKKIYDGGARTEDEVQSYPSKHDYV
Assay: flow cytometry on K562-CLDN18.2 cells, anti-Myc-Tag detection

B1: Claudin18.2纳米抗体 12B (VHH)
VHH: EVQLVESGGGSVQAGGSLRLSCAVSGYTYNLKYMGWFRQAPGKEREPVAFIYLGGDNQYYAPSVKDRFTISQDNAKNTVYLQMNSLKPDDTAMYYCAATTALLFLAQTSSWNYWGQGTQVTVSS
notes: Bactrian camel VHH, made in a cell-free system and purified on His beads; detected through a Myc tag; also called Claudin18.2nb; not shown: N-terminal tag of the cell-free construct (8His-GSG and vector-derived residues, known only from primer DNA); amino acid; C-terminal Myc tag (detected with anti-Myc antibody)
binding result: binds

B2: Claudin18.2纳米抗体 11C (VHH)
VHH: DVQLQESGGGSVQAGGSLRLSCAASGAIYMRNYMAWFRQVPGKEREGVAGISASSGRTYYDDSVKGRFTISQDNAKNTVYLQMNSLKPEDTAMYFCAADPFQVMIDTMRYWGQGTQVTVSS
notes: Bactrian camel VHH, made in a cell-free system and purified on His beads; detected through a Myc tag; also called Claudin18.2nb; not shown: N-terminal tag of the cell-free construct (8His-GSG and vector-derived residues, known only from primer DNA); amino acid; C-terminal Myc tag (detected with anti-Myc-Tag 9B11)
binding result: binds

B3: Claudin18.2纳米抗体 10B (VHH)
VHH: EVQLVESGGGSVQAGGSLRLSCAASEQTYNRYCMGWFRQAPGKEREGVADINWRGIPNYSDSVKGRFTISQDHAKNTLYLQMNSLKPEDTAMYYCAARRGLPVVGCYDEYNIWGQGTQVTVSS
notes: as for B2
binding result: binds

B4: Claudin18.2纳米抗体 2F (VHH)
VHH: QVQLVESGGGSVQAGGSLRLSCAGSGYVYPYYCMGWFRQAPGKERERVASIDRAGSQSYADSVKGRFTISKDNAKNTLYLQMGSLEPEDTAMYYCATDLGDGLWYSGCGTYRYWGQGTQVTVSS
notes: as for B2
binding result: binds
